In assay [1] the target is T1, EphA2 extracellular domain (ECD) (human, UniProt P29317 24-537). As to the kind of experiment: SPR. (SPR reads the build-up and loss of mass on a sensor chip optically.)
The target of assay [2] is T1, EphA2 extracellular domain (ECD). As to the kind of experiment: SPR. The source holds these as a separate data set.

T1 sequence (P29317 24-537): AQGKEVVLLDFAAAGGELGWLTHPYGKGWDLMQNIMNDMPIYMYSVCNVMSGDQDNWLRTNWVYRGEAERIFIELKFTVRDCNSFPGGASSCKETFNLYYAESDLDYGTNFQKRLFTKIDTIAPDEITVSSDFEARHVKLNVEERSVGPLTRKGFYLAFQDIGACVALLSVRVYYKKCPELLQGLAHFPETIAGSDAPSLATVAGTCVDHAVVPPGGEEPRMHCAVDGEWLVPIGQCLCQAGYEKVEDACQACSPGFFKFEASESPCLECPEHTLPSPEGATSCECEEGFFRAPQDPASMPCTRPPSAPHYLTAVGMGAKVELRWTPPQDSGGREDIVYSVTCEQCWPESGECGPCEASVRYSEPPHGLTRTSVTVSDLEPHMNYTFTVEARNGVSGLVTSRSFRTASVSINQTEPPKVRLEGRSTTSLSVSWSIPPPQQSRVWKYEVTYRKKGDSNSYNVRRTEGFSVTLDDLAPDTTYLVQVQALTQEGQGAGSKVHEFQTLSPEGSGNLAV

B1: Fab L1 (Fab, V domains shown)
VH: EVQLVESGGGLVQPGGSLRLSCAASGFTISSSYIHWVRQAPGKGLEWVASISSYYGSTSYADSVKGRFTISADTSKNTAYLQMNSLRAEDTAVYYCARSHYSVWWGWHSVSYYAAFDYWGQGTLVTVSS
VL: DIQMTQSPSSLSASVGDRVTITCRASQSVSSAVAWYQQKPGKAPKLLIYSASSLYSGVPSRFSGSRSGTDFTLTISSLQPEDFATYYCQQGSAPFTFGQGTKVEIK
The koff is a measure of how fast the partners let go of each other. As a reminder, the Kd is a measure of binding affinity in units of concentration. Turning to B1, the koff in assay [1] came to 7.2e-05 s⁻¹. For the same molecule, the affinity in assay [2], expressed as Kd, was 0.44 nM.

B2: Fab C1 (Fab, V domains shown)
VH: EVQLVESGGGLVQPGGSLRLSCAASGFTIYYSSMHWVRQAPGKGLEWVASISSYYGYTYYADSVKGRFTISADTSKNTAYLQMNSLRAEDTAVYYCARYYAMDYWGQGTLVTVSS
VL: DIQMTQSPSSLSASVGDRVTITCRASQSVSSAVAWYQQKPGKAPKLLIYSASSLYSGVPSRFSGSRSGTDFTLTISSLQPEDFATYYCQQYYGYGGYPITFGQGTKVEIK
For B2, the koff in assay [1] was found to be 0.00019 s⁻¹. Besides, binding in assay [2] was characterised by a dissociation constant (Kd) of 0.21 nM.

B3: Fab F1 (Fab, V domains shown)
VH: EVQLVESGGGLVQPGGSLRLSCAASGFDSGAYLRHWVRQAPGKGLEWVASIYPSYGYTSYADSVKGRFTISADTSKNTAYLQMNSLRAEDTAVYYCARSAASYYGYWHWYHFSPGMDYWGQGTLVTVSS
VL: DIQMTQSPSSLSASVGDRVTITCRASQSVSSAVAWYQQKPGKAPKLLIYSASDLYSGVPSRFSGSRSGTDFTLTISSLQPEDFATYYCQQYVSGGWLITFGQGTKVEIK
On to B3, for which, in assay [1], the off-rate (koff) was determined as 7.8e-05 s⁻¹. Besides, the affinity in assay [2], expressed as Kd, was 0.26 nM.

The values are drawn from PMC12102760 (2025).
